Source: patent US20190185574A1 (COMMISSARIAT L NERGIE ATOMIQUE ET AUX NERGIES ALTERNATIVES, published 2019)
Substitutions are numbered along the chain they refer to. Each block holds one binder with its values, some of them ahead of it.

Key:
[1] = target: T1, peptide C7 of the ETB-R Pep-scan membrane (human); assay: Pep-scan peptide membrane, 1 µg/ml antibody, chemiluminescent detection
T1 construct: Residues are inferred as for C5, from the one-residue offset and C11 = 71-82
T1 peptide: APAEVPKGDRTA

[2] = target: T2, peptide C8 of the ETB-R Pep-scan membrane (human); assay: as above
T2 construct: Residues are inferred as for C5, from the one-residue offset and C11 = 71-82
T2 peptide: PAEVPKGDRTAG

[3] = target: T3, peptide C9 of the ETB-R Pep-scan membrane (human); assay: as above
T3 construct: Residues are inferred as for C5, from the one-residue offset and C11 = 71-82
T3 peptide: AEVPKGDRTAGS

[4] = target: T4, peptide C10 of the ETB-R Pep-scan membrane (human); assay: as above
T4 construct: Residues are inferred as for C5, from the one-residue offset and C11 = 71-82
T4 peptide: EVPKGDRTAGSP

[5] = target: T5, peptide C5 of the ETB-R Pep-scan membrane (human); assay: as above
T5 construct: The peptides are 12-mers offset by one residue, C11 is stated to be 71-82, and C5-C10 share 70-76
T5 peptide: SLAPAEVPKGDR

[6] = target: T6, peptide C6 of the ETB-R Pep-scan membrane (human); assay: as above
T6 construct: Residues are inferred as for C5, from the one-residue offset and C11 = 71-82
T6 peptide: LAPAEVPKGDRT

[7] = target: T7, human endothelin receptor sub-type B (human, UniProt P24530 27-442); assay: flow cytometry on CHO-ETBR cells; apparent KD = concentration giving 50% of plateau MFI
T7 construct: no signal peptide limits are stated; also called ETB-R; ETBR
T7 sequence: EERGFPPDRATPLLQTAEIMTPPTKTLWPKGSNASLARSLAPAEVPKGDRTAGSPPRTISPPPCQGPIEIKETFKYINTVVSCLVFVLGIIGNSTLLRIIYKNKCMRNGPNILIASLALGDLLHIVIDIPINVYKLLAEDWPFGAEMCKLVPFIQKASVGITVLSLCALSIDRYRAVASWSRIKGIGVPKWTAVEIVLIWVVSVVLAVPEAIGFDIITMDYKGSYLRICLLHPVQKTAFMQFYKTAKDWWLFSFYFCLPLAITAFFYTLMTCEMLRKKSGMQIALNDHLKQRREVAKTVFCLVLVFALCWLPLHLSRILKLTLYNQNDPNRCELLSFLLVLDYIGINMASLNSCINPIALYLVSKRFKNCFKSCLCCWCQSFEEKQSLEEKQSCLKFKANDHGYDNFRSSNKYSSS

[8] = target: T7, human endothelin receptor sub-type B; assay: flow cytometry on CHO-ETBR cells pre-incubated 2 h at 37° C. with 300 nM endothelin 1 (receptor internalised)

- binding result [1]: binds
- binding result [2]: binds
- binding result [3]: binds
- binding result [4]: binds
- binding result [5]: binds
- binding result [6]: binds
B1: Rendomab-B49 (antibody, IgG1, V domains shown)
VH: QVQLQQPGAALVKPGASVKLSCKASGYTFISYWMLWVKQRPGRGLEWIGRIDPDSGGTKYNEKFKSKATLTVDKSSSTAYMQLSSLTSEDSAVYYCAREGDYAWFAYWGQGTLVPVSA
VL: DVLMTQTPLSLPVSLGDQASISCRSSQSIVHSNGNTYLEWYLQKPGQSPKLLIYKVSNRFSGVPDRFSGSGSGTDFTLKISRVEAEDLGVYYCFQGSHVPWTFGGGTKLEIK
notes: Murine monoclonal IgG1/kappa purified from ascites; also called hybridoma CNCM I-5084

- Kd [7]: ~1 nM
- drop of binding after pre-incubation of the cells with 300 nM endothelin 1 [8]: > 50%
B2: Rendomab-B41 (antibody, IgG1, V domains shown)
VH: QVQLQQPGAELVKPGASVKLSCKASGYTFTSYWMHWVKQRPGRGLEWIGRIDPDSGGTKYNEKFKSKATLTVDKPSNTANMQLSSLTSEDSAVYYCVREGWDAWFVYWGQGTLLTVSA
VL: DVLMTQTPLSLPVSLGDQASISCRSSQSIVHSNGNTYLEWYLQKPGQSPKLLIYKVFNRFSGVPDRFSGSGSGTDFTLKISRVEAEDLGVYYCFQGSHVPLTFGAGTKLELKR
notes: Murine monoclonal IgG1/kappa purified from ascites; also called hybridoma CNCM I-5104

- Kd [7]: ~1 nM
- drop of binding after pre-incubation of the cells with 300 nM endothelin 1 [8]: > 50%
B3: Rendomab-B36 (antibody, IgG3, V domains shown)
VH: QVQLQQPGAELVKPGASVKLSCKASGYTFTSYWIHWVNQRPGRGLEWIGRIDPNSGGTKYNEKFKSKATLTVDKTSSTAYMQFSSLTSEDSAVYYCAREGEFAWFAYWGQGTLVTVSA
VL: B2 VL with S28N, N35Y, F57S, A105S, L111I
notes: Murine monoclonal IgG3/kappa purified from ascites; also called hybridoma CNCM I-5103
